Results published in US20150351390A1, “COMPOSITIONS AND METHODS FOR AUXIN-ANALOG CONJUGATION” (PIONEER HI-BRED INTERNATIONAL, INC., priority 2012, published 2015).

B1: Gm03g30590.1: GH3 protein, Glyma03g30590.1 (protein)
chain: MMTDEELLQKLEDLTKNAQHHHLETLRSILLHNGIVHYLQSFKKGSLLHLDPSTFARVVPLSTYEDYVDYINQMAEGKDDPFLSVDPLRCFFYSSGTSSSTMKPKLIPYFDSSLSKAASFIGHRGSVAVRQRLFPPRPEVNKILWFLYADNITTTKCGLKVMAASTYPLQSGNATPQQLAAFSSPLEVILATNVENQMYCHLLCGLRNLDLIDGIATPYAIGLIKAFGFLESKWEQLCDDLDHGFPCNEISEGAMREAVTNTLGGPQPELANRIRLICEGNNWGGIVYRLWPNIRYIRCVTTGSMKQYYQKLKYYAGEVPILGGDYFASECCVGLNLDIMQPPETTRFVMLPTFAYFEFLPFNINEDNDASKEAVDYSSVEVGKMYEVVVTTYRGYYRYRLGDIVRVVGFYNSSPLVEYVMRAPKTPAEIVTEKDLISAVENFQLALRGAMRIEIVEFASFLDQESMPKQLKVFVEVQEESDFLEDKLEESVRVLRSCISSLESGLGAIYKVQKDKGQLRSLRIFIIRPGAFDQLSELAIKNGTSASQYKPPKIIRNHEVVKLLEKLAFVAVSFDG
modifications: Glycine max
B2: BjACC38383.1: GH3 protein, accession ACC38383.1 (protein, listed as Brassica juncea)
chain: MIIISYYNEEEKGKVLEDLTWNVKQIQDDLLKEILTLNSGTEYLQNFLHGSSAKELFKKNLPIVTYKDVKPYIDRVANGESSNIISTLPITNFFNSSGTSGGANKILPSNSKYLDGSAFSTDLLAHVIRKHVKGVERGKGMLFFLTGHDTKTPGGFPIEDGISWYLKSDYFKNRPSTWFYSYTSPDEVMLGSDLKENLYCHLLCGLVQRDEVTRIGSTFASGMVRVIKVLEDSWKELCSNIRSGNLSEWITDSGCRNSVSLVLGGQPRHKLSDEIESICSQKSWKGIMKKLWPQTLCIEAIATGSMAQYVPTLKHYSGDVPLVSTIYASSESMFGINTDPLCQPENTSYTLMPNISYFEFIPTEGGNGDVVDLADVKLGCSYQLLVTNLWGLYRMRIGDIVKVTGFHNKAPKFRVIGRENTLLSIDTDRTTEEYLLKAVNRARLVLESSDLRLVAFTSYADISSSPGHYVIYWEVKTKEEDMKELDEKTFLECCSVMEDTLDEEYMYCRANEFIGPLEIRVVNDGTFDSLMNLSISKGASITQYKYWRQMWLLDSSVLSEHLMCLSHDIWSKKRGRNVCVLSVLSWFLLTIF
B3: GmGH3-14: GH3 protein, accession XP_003516612.1 (protein)
chain: MRPYPYVFPGPHVLPAKSTTEVVLIFCPLRYPGPLPLSFPFILSILILPSLIMALQFIEQVTKNTDSVQERVLSEILTQNAETEYLKRFALNGATDRDTFKSKVPVVTYEDLQPDIERIANGDRSPILCAHPISEFLTSSGTSAGERKLMPTIHEEMDRRQLLYSLLMPVMNQYVSDLDKGKALHFLFIKAEAKTPGGLMARPVLTSYYKSEQFRKRPFDPYNVLTSPNEAILCPDSFQSMYTQMLCGLIMRHEVLRVGAVFASGLLRAIRFLQLNWEQLSHDILTGTLNPKITEPSIKERMSKILKPDPELAAFIKSECSGENWERIIVRIWPNTKYLDVIVTGAMAQYIPTLDYYSGGLPKPCTMYASSECFFGLNLKPMSEPSDVSYTILPNMGYFEFLPHDDSSPITLSKDSPPRLVELADVELGKYYELIITTYAGLCRYRVGDILQVTGFHNSDPQFRFVRRKNVLLSIDSDKTDESELQKAVENASELLKEFNTSVAEYTSFADTKSIPGHYVIYWELMMKDSSHPPTNQVLNQCCLVMEESLNSVYRQGRVADNSIGPLEIRVVKNGTFEELMDYAISRGASINQYKVPRCVSFTPIMELLDSRVLSFHFSPAAPHWTPERRR
modifications: Glycine max
B4: Br040953: GH3 protein, Bra040953 (protein, listed as Brassica rapa)
chain: MMIPSYDPNDTEAGLQLLEDLTTNADAIQQQVLHQILSQNSETEYLRSFLDGESCNIQENFKNKAPVVNYEDIKPFIQRISDGDSSDILSAQPITELLTSSGTSGGKPKFMPSTAEELDRKTFFYNMLVPVMNKFVNGLDEGKGMYLLFIKPEIKTPSGLQARPVLTSYYKSEQFKNRPFNKYNVITSPNDAILCEDSQQSMYCQLLCGLVQRSDVLRLGAIFASAFLRAVKFLENHFTELCADIRTGTVASWITDSGCRDSVLSILNGPNQELADEIEALFNAKSREGILKRIWPKTKYIEVIVTGSMAQYIPTLEFYSGGLPLVSVMYASSECFFGLNINPLCKPSDVSYTLLPNMAYFEFLPVDDKSHEETHLESRSTDDVSLTDKDRIVDLVSVEIGRYYELIITTFAGLYRYRVGDILKVTGFHNKAPQFSFVERRNVVLSIDTDKTSEEDLMKAVTQAKLNHLQGLFLLTEYTSYADTSSIPGHYVLFWELKPRYDNDPPKLDKKMMEDCCSEVEDCLDYVYRRCRNKDRSIGALEIRVVSLGTFDALMDFSISQGSSVNQYKTPRCVKSGGALQILDSRVIGRFFTKRVPQWEPLGLDS
B5: GmGH3-15: GH3 protein, accession XP_003540050.1 (protein)
chain: MPEAPRDYNLFEQNKKTLEFIEDVTANADQVQKRVLSEILSNNANVEYLKRHDLHGQTDRETFKKLLPVITYEDIQPDINRIANGDTSPILCSKPISEFLTSSGTSGGERKLMPTIEEELGRRSLLYSLLMPVMSQFVPGLEKGKGMYLMFIKSEAKTPGGIVARPVLTSYYKSSYFKDRPYDPYTNYTSPNETVLCPDSYQSMYSQLLCGLCQHKEVLRVGAVFASGFIRAIRFLEKHWPLLCHDIRTGTINNTITDLSVRDAVMKILKPDPRLGDLIQSECGKSSWQGIITRLWPNTKYVDVIVTGTMSQYIPTLDYYSNGLPLVCTMYASSECYFGVNLNPLCKPSEVSYTLIPTMCYYEFLPVNRSNGVSHDSLHTPRSLNEKEQQELVELVDVKLGQEYELVVTTYAGLYRYRVGDVLRVAGFKNKAPQFNFVCRKNVVLSIDSDKTDEVELQNAMKNAVTHLVPFDASVSEYTSYADTTTIPGHYVLYWELSLKGSTPIPPCVFEDCCLAIEESLNSVYRQGRVSDKSIGPLEIKIVEQGTFDKLMDYAISLGASINQYKTPRCVKFAPVVELLNSRVVEKYFSPKCPKWVPGHKQWINQN
modifications: Glycine max
B6: Br016359: GH3 protein, Bra016359 (protein, listed as Brassica rapa)
chain: MSVISVLTEKANDKLKILEDLTSNVKQIQDNVLEEILTLNTNTEYLQRFFHGKFDKEIFKKNVPVGTYEDVKPYIQRVANGEPSNVISTRPITGFLLSSGTSGGAQKIMPWNEKFLDYLTFMYDLRMHVITNYVKGLEKGKAMMFYFTKLESTTASGLPARTASSSYLKSSYFKNRPCNWYYTYTSPDEVILCPDNKQSLYCHLLCGLVQRNEVTRMGSIFASVMVRAIKFLEDSWEELCSNIRSGQLSEWITDPGCRDSVSMVLGGPHPEVANTVEKICNEKCWKGILKRLWPRTKYIETIVTGSMAQYVPTLNYYCNDMLPLVSTIYASSETTFGLNLNPLCKPEDVSYTIMPNVSYFEFIPLDGDENDVVDLADLKLGCSYELVVTNFSGLYRIRVGDILLVTGFYNKAPQLRFIRRDNVVLSIDMDKTNEEDLFNAVNRAKLIINSSGLMLTDFTSHGDISTIPGHYVIYWEVEDKREDKTKHICMELKGDAFSECCLVMEDSFDNVYKRCRFREKTVGPLEIKVVLHGTFDSLMDFFISQGASIGQYKTPRCIGSGKPLELLEKNVVATFFSTGDCSFKN

Assays:
Format in all cases: biochemical
[1] = LC-MS assay of GH3 conjugation of dicamba with Asp or Glu; conditions: LC-MS; for Detected auxin conjugates: Dicamba-Asp: dicamba with Asp; for Detected auxin conjugates: Dicamba-Glu: dicamba with Glu
Procedure, shortened: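 GH3 superfamily homologs, found by Blast searches of public databases using AtGH3.17 (Q9FZ87), were synthesized with E. coli-optimized codons and an N-terminal his-tag, expressed in OverExpress C41(DE3) cells after 0.2 mM IPTG induction at 16° C., and Ni-NTA purified. Conjugation of dicamba with Asp or Glu was measured by LC-MS using conjugate standards.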

[2] = LC-MS assay of GH3 conjugation of IAA with Asp or Glu; conditions: LC-MS; for Detected auxin conjugates: IAA-Asp: IAA with Asp; for Detected auxin conjugates: IAA-Glu: IAA with Glu
Procedure, shortened: (§1)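 Rxn: 20 mM Tris-HCl pH 8.0, 5 mM MgCl2, 1 mM DTT, 5 mM ATP, 5 mM auxin, 5 mM Asp/Glu, 44–164 μg/mL purified His-GH3; 30° C., 3 h. MeOH quench, supernatant diluted 20×, LC-MS vs conjugate standards.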

[3] = LC-MS assay of GH3 conjugation of 2,4-D with Asp or Glu; conditions: LC-MS; for Detected auxin conjugates: 2,4-D-Asp: 2,4-D with Asp; for Detected auxin conjugates: 2,4-D-Glu: 2,4-D with Glu
Procedure, shortened: as §1

Row | Molecule | Detected auxin conjugates: Dicamba-Asp [1] | Detected auxin conjugates: Dicamba-Glu [1] | Detected auxin conjugates: IAA-Asp [2] | Detected auxin conjugates: IAA-Glu [2] | Detected auxin conjugates: 2,4-D-Asp [3] | Detected auxin conjugates: 2,4-D-Glu [3]
1 | B1 | No | No | Yes | No | Yes | Yes
2 | B2 | No | No | Yes | No | No | No
3 | B3 | No | No | No | No | No | No
4 | B4 | No | No | Yes | Yes | Yes | Yes
5 | B5 | No | No | Yes | Yes | Yes | Yes
6 | B6 | No | No | Yes | No | Yes | No
